Source: patent US20180009871A1 (INTARCIA THERAPEUTICS, published 2018)
Where no end group is shown, it is not given here. [ ]: non-standard residue; d: D form. Aib = CC(C)(N)C(=O)O

B1: Compound A15 (peptide)
peptide: YSHGTFTSDYSKYLD[Aib]SRAQEFV[Aib]WLEDEPSSGAPPPS-OH
modifications: N-terminus assumed
SMILES: CC(C)C[C@H](NC(=O)[C@H](Cc1ccc(O)cc1)NC(=O)[C@H](CCCCN)NC(=O)[C@H](CO)NC(=O)[C@H](Cc1ccc(O)cc1)NC(=O)[C@H](CC(=O)O)NC(=O)[C@H](CO)NC(=O)[C@@H](NC(=O)[C@H](Cc1ccccc1)NC(=O)[C@@H](NC(=O)CNC(=O)[C@H](Cc1c[nH]cn1)NC(=O)[C@H](CO)NC(=O)[C@@H](N)Cc1ccc(O)cc1)[C@@H](C)O)[C@@H](C)O)C(=O)N[C@@H](CC(=O)O)C(=O)NC(C)(C)C(=O)N[C@@H](CO)C(=O)N[C@@H](CCCNC(=N)N)C(=O)N[C@@H](C)C(=O)N[C@@H](CCC(N)=O)C(=O)N[C@@H](CCC(=O)O)C(=O)N[C@@H](Cc1ccccc1)C(=O)N[C@H](C(=O)NC(C)(C)C(=O)N[C@@H](Cc1c[nH]c2ccccc12)C(=O)N[C@@H](CC(C)C)C(=O)N[C@@H](CCC(=O)O)C(=O)N[C@@H](CC(=O)O)C(=O)N[C@@H](CCC(=O)O)C(=O)N1CCC[C@H]1C(=O)N[C@@H](CO)C(=O)N[C@@H](CO)C(=O)NCC(=O)N[C@@H](C)C(=O)N1CCC[C@H]1C(=O)N1CCC[C@H]1C(=O)N1CCC[C@H]1C(=O)N[C@@H](CO)C(=O)O)C(C)C
B2: Compound A13 (peptide)
peptide: YSHGTFTSDYSKYLD[Aib]KRAQEFV[Aib]WLEDESGAPPPS-OH
modifications: N-terminus assumed
SMILES: CC(C)C[C@H](NC(=O)[C@H](Cc1ccc(O)cc1)NC(=O)[C@H](CCCCN)NC(=O)[C@H](CO)NC(=O)[C@H](Cc1ccc(O)cc1)NC(=O)[C@H](CC(=O)O)NC(=O)[C@H](CO)NC(=O)[C@@H](NC(=O)[C@H](Cc1ccccc1)NC(=O)[C@@H](NC(=O)CNC(=O)[C@H](Cc1c[nH]cn1)NC(=O)[C@H](CO)NC(=O)[C@@H](N)Cc1ccc(O)cc1)[C@@H](C)O)[C@@H](C)O)C(=O)N[C@@H](CC(=O)O)C(=O)NC(C)(C)C(=O)N[C@@H](CCCCN)C(=O)N[C@@H](CCCNC(=N)N)C(=O)N[C@@H](C)C(=O)N[C@@H](CCC(N)=O)C(=O)N[C@@H](CCC(=O)O)C(=O)N[C@@H](Cc1ccccc1)C(=O)N[C@H](C(=O)NC(C)(C)C(=O)N[C@@H](Cc1c[nH]c2ccccc12)C(=O)N[C@@H](CC(C)C)C(=O)N[C@@H](CCC(=O)O)C(=O)N[C@@H](CC(=O)O)C(=O)N[C@@H](CCC(=O)O)C(=O)N[C@@H](CO)C(=O)NCC(=O)N[C@@H](C)C(=O)N1CCC[C@H]1C(=O)N1CCC[C@H]1C(=O)N1CCC[C@H]1C(=O)N[C@@H](CO)C(=O)O)C(C)C
B3: Compound A16 (peptide)
peptide: YSHGTFTSDYSKYLD[Aib]TRAQEFV[Aib]WLEDEPSSGAPPPS-OH
modifications: N-terminus assumed
SMILES: CC(C)C[C@H](NC(=O)[C@H](Cc1ccc(O)cc1)NC(=O)[C@H](CCCCN)NC(=O)[C@H](CO)NC(=O)[C@H](Cc1ccc(O)cc1)NC(=O)[C@H](CC(=O)O)NC(=O)[C@H](CO)NC(=O)[C@@H](NC(=O)[C@H](Cc1ccccc1)NC(=O)[C@@H](NC(=O)CNC(=O)[C@H](Cc1c[nH]cn1)NC(=O)[C@H](CO)NC(=O)[C@@H](N)Cc1ccc(O)cc1)[C@@H](C)O)[C@@H](C)O)C(=O)N[C@@H](CC(=O)O)C(=O)NC(C)(C)C(=O)N[C@H](C(=O)N[C@@H](CCCNC(=N)N)C(=O)N[C@@H](C)C(=O)N[C@@H](CCC(N)=O)C(=O)N[C@@H](CCC(=O)O)C(=O)N[C@@H](Cc1ccccc1)C(=O)N[C@H](C(=O)NC(C)(C)C(=O)N[C@@H](Cc1c[nH]c2ccccc12)C(=O)N[C@@H](CC(C)C)C(=O)N[C@@H](CCC(=O)O)C(=O)N[C@@H](CC(=O)O)C(=O)N[C@@H](CCC(=O)O)C(=O)N1CCC[C@H]1C(=O)N[C@@H](CO)C(=O)N[C@@H](CO)C(=O)NCC(=O)N[C@@H](C)C(=O)N1CCC[C@H]1C(=O)N1CCC[C@H]1C(=O)N1CCC[C@H]1C(=O)N[C@@H](CO)C(=O)O)C(C)C)[C@@H](C)O
B4: Compound A17 (peptide)
peptide: YSHGTFTSDYSKYLD[Aib]ERAQEFV[Aib]WLEDEPSSGAPPPS-OH
modifications: N-terminus assumed
SMILES: CC(C)C[C@H](NC(=O)[C@H](Cc1ccc(O)cc1)NC(=O)[C@H](CCCCN)NC(=O)[C@H](CO)NC(=O)[C@H](Cc1ccc(O)cc1)NC(=O)[C@H](CC(=O)O)NC(=O)[C@H](CO)NC(=O)[C@@H](NC(=O)[C@H](Cc1ccccc1)NC(=O)[C@@H](NC(=O)CNC(=O)[C@H](Cc1c[nH]cn1)NC(=O)[C@H](CO)NC(=O)[C@@H](N)Cc1ccc(O)cc1)[C@@H](C)O)[C@@H](C)O)C(=O)N[C@@H](CC(=O)O)C(=O)NC(C)(C)C(=O)N[C@@H](CCC(=O)O)C(=O)N[C@@H](CCCNC(=N)N)C(=O)N[C@@H](C)C(=O)N[C@@H](CCC(N)=O)C(=O)N[C@@H](CCC(=O)O)C(=O)N[C@@H](Cc1ccccc1)C(=O)N[C@H](C(=O)NC(C)(C)C(=O)N[C@@H](Cc1c[nH]c2ccccc12)C(=O)N[C@@H](CC(C)C)C(=O)N[C@@H](CCC(=O)O)C(=O)N[C@@H](CC(=O)O)C(=O)N[C@@H](CCC(=O)O)C(=O)N1CCC[C@H]1C(=O)N[C@@H](CO)C(=O)N[C@@H](CO)C(=O)NCC(=O)N[C@@H](C)C(=O)N1CCC[C@H]1C(=O)N1CCC[C@H]1C(=O)N1CCC[C@H]1C(=O)N[C@@H](CO)C(=O)O)C(C)C
B5: Compound A14 (peptide)
peptide: YSHGTFTSDYSKYLD[Aib]KRAQEFV[Aib]WLEDESSGAPPPS-OH
modifications: N-terminus assumed
SMILES: CC(C)C[C@H](NC(=O)[C@H](Cc1ccc(O)cc1)NC(=O)[C@H](CCCCN)NC(=O)[C@H](CO)NC(=O)[C@H](Cc1ccc(O)cc1)NC(=O)[C@H](CC(=O)O)NC(=O)[C@H](CO)NC(=O)[C@@H](NC(=O)[C@H](Cc1ccccc1)NC(=O)[C@@H](NC(=O)CNC(=O)[C@H](Cc1c[nH]cn1)NC(=O)[C@H](CO)NC(=O)[C@@H](N)Cc1ccc(O)cc1)[C@@H](C)O)[C@@H](C)O)C(=O)N[C@@H](CC(=O)O)C(=O)NC(C)(C)C(=O)N[C@@H](CCCCN)C(=O)N[C@@H](CCCNC(=N)N)C(=O)N[C@@H](C)C(=O)N[C@@H](CCC(N)=O)C(=O)N[C@@H](CCC(=O)O)C(=O)N[C@@H](Cc1ccccc1)C(=O)N[C@H](C(=O)NC(C)(C)C(=O)N[C@@H](Cc1c[nH]c2ccccc12)C(=O)N[C@@H](CC(C)C)C(=O)N[C@@H](CCC(=O)O)C(=O)N[C@@H](CC(=O)O)C(=O)N[C@@H](CCC(=O)O)C(=O)N[C@@H](CO)C(=O)N[C@@H](CO)C(=O)NCC(=O)N[C@@H](C)C(=O)N1CCC[C@H]1C(=O)N1CCC[C@H]1C(=O)N1CCC[C@H]1C(=O)N[C@@H](CO)C(=O)O)C(C)C

How the values were obtained:
[1] = molecular target: human glucagon receptor (GCGR) (human, UniProt P47871 26-477); assay: cell-based or functional assay
[2] = molecular target: human GLP-1 receptor (GLP-1R) (human, UniProt P43220 24-463); assay: cell-based or functional assay
human GLP-1 receptor (GLP-1R), sequence (P43220 24-463): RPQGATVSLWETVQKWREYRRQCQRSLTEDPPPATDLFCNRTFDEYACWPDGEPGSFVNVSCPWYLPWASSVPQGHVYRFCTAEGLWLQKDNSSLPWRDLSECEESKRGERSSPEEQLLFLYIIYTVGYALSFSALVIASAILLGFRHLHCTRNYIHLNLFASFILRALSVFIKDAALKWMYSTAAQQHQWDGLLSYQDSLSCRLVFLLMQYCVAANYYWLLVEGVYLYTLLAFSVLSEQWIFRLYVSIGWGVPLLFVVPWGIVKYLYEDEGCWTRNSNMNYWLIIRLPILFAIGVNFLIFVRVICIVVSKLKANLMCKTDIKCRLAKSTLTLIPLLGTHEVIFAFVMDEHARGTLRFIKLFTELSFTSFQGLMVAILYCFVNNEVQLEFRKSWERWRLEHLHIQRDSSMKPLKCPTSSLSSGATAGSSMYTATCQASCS

| Binder | hGCGR pEC50 (cAMP) [1] | hGLP1 pEC50 (cAMP) [2] |
| --- | --- | --- |
| B1 | 11.4 pEC50 | < 9 pEC50 |
| B2 | 12.3 pEC50 | < 9 pEC50 |
| B3 | 11.9 pEC50 | < 9 pEC50 |
| B4 | 11.1 pEC50 | < 9 pEC50 |
| B5 | 12 pEC50 | < 9 pEC50 |
